Results: patent US20140274782A1, “AFFINITY REAGENTS AND METHODS FOR DETECTION, PURIFICATION, AND PROTEOMIC ANALYSIS OF METHYLATED PROTEINS” (The Board of Trustees of the Leland Stanford Junior …, priority 2013, published 2014)

T1: G9a and GLP (Homo sapiens, UniProt Q96KQ7+Q9H9B1)
T1 sequence (Q96KQ7 2-1210 limits assumed): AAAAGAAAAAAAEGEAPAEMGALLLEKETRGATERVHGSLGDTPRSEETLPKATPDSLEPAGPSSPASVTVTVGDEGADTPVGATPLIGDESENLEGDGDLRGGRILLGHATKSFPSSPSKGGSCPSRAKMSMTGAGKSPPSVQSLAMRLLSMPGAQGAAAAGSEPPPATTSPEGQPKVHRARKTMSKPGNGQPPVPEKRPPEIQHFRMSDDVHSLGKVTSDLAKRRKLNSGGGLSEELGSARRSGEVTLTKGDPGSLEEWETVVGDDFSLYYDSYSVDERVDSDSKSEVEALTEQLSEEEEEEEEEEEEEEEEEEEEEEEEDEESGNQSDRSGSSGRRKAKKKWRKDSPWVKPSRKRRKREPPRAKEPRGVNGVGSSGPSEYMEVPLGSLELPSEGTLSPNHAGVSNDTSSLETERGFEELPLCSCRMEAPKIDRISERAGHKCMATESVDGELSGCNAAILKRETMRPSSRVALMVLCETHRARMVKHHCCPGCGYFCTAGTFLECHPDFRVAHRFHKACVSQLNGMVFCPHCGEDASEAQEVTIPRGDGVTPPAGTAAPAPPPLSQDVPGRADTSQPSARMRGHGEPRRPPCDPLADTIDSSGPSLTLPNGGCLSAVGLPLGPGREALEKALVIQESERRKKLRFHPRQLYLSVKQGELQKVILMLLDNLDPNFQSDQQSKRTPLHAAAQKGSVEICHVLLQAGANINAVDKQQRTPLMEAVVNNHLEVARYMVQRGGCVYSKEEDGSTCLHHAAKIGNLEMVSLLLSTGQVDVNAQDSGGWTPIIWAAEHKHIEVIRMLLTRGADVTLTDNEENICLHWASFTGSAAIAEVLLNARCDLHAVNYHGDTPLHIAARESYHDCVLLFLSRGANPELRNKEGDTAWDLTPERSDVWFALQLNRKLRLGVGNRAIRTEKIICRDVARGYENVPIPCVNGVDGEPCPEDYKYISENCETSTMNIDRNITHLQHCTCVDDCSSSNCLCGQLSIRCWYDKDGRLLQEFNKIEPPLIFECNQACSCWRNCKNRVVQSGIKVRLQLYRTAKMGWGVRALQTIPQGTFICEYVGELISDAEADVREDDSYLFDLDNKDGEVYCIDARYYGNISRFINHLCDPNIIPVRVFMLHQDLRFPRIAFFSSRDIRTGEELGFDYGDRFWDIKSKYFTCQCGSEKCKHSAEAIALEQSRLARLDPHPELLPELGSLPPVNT
T1 sequence (Q9H9B1 2-1298 limits assumed): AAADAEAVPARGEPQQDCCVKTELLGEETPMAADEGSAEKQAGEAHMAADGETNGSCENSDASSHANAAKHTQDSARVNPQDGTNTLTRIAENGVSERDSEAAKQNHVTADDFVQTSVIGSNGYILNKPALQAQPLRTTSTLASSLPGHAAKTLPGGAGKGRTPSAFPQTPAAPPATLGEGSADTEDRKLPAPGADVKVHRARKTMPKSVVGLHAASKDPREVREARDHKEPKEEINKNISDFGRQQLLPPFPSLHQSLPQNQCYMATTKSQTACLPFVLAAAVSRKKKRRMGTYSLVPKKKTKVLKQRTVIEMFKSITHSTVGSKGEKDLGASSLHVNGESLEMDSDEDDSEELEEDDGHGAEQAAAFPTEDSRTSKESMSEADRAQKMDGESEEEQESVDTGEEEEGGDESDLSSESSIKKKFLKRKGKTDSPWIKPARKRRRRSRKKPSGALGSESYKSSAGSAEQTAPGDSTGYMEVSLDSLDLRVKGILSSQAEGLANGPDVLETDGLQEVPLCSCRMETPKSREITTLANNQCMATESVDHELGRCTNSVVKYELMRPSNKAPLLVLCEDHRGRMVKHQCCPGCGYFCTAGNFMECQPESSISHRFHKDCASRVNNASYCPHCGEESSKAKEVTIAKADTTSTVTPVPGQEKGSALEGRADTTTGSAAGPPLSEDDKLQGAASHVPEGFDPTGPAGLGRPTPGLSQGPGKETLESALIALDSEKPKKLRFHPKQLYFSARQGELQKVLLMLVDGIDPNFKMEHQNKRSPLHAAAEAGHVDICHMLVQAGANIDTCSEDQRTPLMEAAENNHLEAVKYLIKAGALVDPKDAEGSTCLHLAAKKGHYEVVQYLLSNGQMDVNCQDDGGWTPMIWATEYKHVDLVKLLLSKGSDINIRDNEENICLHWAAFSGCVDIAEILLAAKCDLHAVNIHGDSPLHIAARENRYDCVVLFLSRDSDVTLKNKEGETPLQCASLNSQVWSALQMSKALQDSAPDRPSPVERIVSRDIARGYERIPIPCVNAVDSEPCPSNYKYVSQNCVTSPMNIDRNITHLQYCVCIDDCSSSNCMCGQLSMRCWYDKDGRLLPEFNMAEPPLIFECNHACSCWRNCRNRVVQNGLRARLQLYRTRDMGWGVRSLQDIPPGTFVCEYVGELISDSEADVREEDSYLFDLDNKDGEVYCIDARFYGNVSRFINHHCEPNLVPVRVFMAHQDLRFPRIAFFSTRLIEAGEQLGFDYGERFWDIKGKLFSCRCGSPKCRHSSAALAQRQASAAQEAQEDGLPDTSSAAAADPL

B1: PUM1 (protein, UniProt Q14671 2-1186, looked up)
Pumilio homolog 1: SVACVLKRKAVLWQDSFSPHLKHHPQEPANPNMPVVLTSGTGSQAQPQPAANQALAAGTHSSPVPGSIGVAGRSQDDAMVDYFFQRQHGEQLGGGGSGGGGYNNSKHRWPTGDNIHAEHQVRSMDELNHDFQALALEGRAMGEQLLPGKKFWETDESSKDGPKGIFLGDQWRDSAWGTSDHSVSQPIMVQRRPGQSFHVNSEVNSVLSPRSESGGLGVSMVEYVLSSSPGDSCLRKGGFGPRDADSDENDKGEKKNKGTFDGDKLGDLKEEGDVMDKTNGLPVQNGIDADVKDFSRTPGNCQNSANEVDLLGPNQNGSEGLAQLTSTNGAKPVEDFSNMESQSVPLDPMEHVGMEPLQFDYSGTQVPVDSAAATVGLFDYNSQQQLFQRPNALAVQQLTAAQQQQYALAAAHQPHIGLAPAAFVPNPYIISAAPPGTDPYTAGLAAAATLGPAVVPHQYYGVTPWGVYPASLFQQQAAAAAAATNSANQQTTPQAQQGQQQVLRGGASQRPLTPNQNQQGQQTDPLVAAAAVNSALAFGQGLAAGMPGYPVLAPAAYYDQTGALVVNAGARNGLGAPVRLVAPAPVIISSSAAQAAVAAAAASANGAAGGLAGTTNGPFRPLGTQQPQPQPQQQPNNNLASSSFYGNNSLNSNSQSSSLFSQGSAQPANTSLGFGSSSSLGATLGSALGGFGTAVANSNTGSGSRRDSLTGSSDLYKRTSSSLTPIGHSFYNGLSFSSSPGPVGMPLPSQGPGHSQTPPPSLSSHGSSSSLNLGGLTNGSGRYISAAPGAEAKYRSASSASSLFSPSSTLFSSSRLRYGMSDVMPSGRSRLLEDFRNNRYPNLQLREIAGHIMEFSQDQHGSRFIQLKLERATPAERQLVFNEILQAAYQLMVDVFGNYVIQKFFEFGSLEQKLALAERIRGHVLSLALQMYGCRVIQKALEFIPSDQQNEMVRELDGHVLKCVKDQNGNHVVQKCIECVQPQSLQFIIDAFKGQVFALSTHPYGCRVIQRILEHCLPDQTLPILEELHQHTEQLVQDQYGNYVIQHVLEHGRPEDKSKIVAEIRGNVLVLSQHKFASNVVEKCVTHASRTERAVLIDEVCTMNDGPHSALYTMMKDQYANYVVQKMIDVAEPGQRKIVMHKIRPHIATLRKYTYGKHILAKLEKYYMKNGVDLGPICGPPNGII
B2: FAM98B (protein, UniProt Q52LJ0 1-433, looked up)
Protein FAM98B: MRGPEPGPQPTMEGDVLDTLEALGYKGPLLEEQALTKAAEGGLSSPEFSELCIWLGSQIKSLCNLEESITSAGRDDLESFQLEISGFLKEMACPYSVLISGDIKDRLKKKEDCLKLLLFLSTELQASQILQNKKHKNSQLDKNSEVYQEVQAMFDTLGIPKSTTSDIPHMLNQVESKVKDILSKVQKNHVGKPLLKMDLNSEQAEQLERINDALSCEYECRRRMLMKRLDVTVQSFGWSDRAKVKTDDIARIYQPKRYALSPKTTITMAHLLAAREDLSKIIRTSSGTSREKTACAINKVLMGRVPDRGGRPNEIEPPPPEMPPWQKRQEGGGGRGGWGGGGGGGGRGGGGGGGGRGGWGGGGGGWGGGGGGGGGWGGGGGGGRGGFQGRGDYGGRGGYGGRGGYGGRGYGDPYGGGGGGGGGGGGGGGYRRY
B3: HNRNPC (protein, UniProt P07910 2-306, looked up)
Heterogeneous nuclear …: ASNVTNKTDPRSMNSRVFIGNLNTLVVKKSDVEAIFSKYGKIVGCSVHKGFAFVQYVNERNARAAVAGEDGRMIAGQVLDINLAAEPKVNRGKAGVKRSAAEMYGSVTEHPSPSPLLSSSFDLDYDFQRDYYDRMYSYPARVPPPPPIARAVVPSKRQRVSGNTSRRGKSGFNSKSGQRGSSKSGKLKGDDLQAIKKELTQIKQKVDSLLENLEKIEKEQSKQAVEMKNDKSEEEQSSSSVKKDETNVKMESEGGADDSAEEGDLLDDDDNEDRGDDQLELIKDDEKEAEEGEDDRDSANGEDDS
B4: TCERG1 (protein, UniProt O14776 1-1098, looked up)
Transcription elongation …: MAERGGDGGESERFNPGELRMAQQQALRFRGPAPPPNAVMRGPPPLMRPPPPFGMMRGPPPPPRPPFGRPPFDPNMPPMPPPGGIPPPMGPPHLQRPPFMPPPMSSMPPPPGMMFPPGMPPVTAPGTPALPPTEEIWVENKTPDGKVYYYNARTRESAWTKPDGVKVIQQSELTPMLAAQAQVQAQAQAQAQAQAQAQAQAQAQAQAQAQAQAQAQAQAQAQAQAQAQAQAQAQAQAQAQAQVQAQVQAQVQAQAVGASTPTTSSPAPAVSTSTSSSTPSSTTSTTTTATSVAQTVSTPTTQDQTPSSAVSVATPTVSVSTPAPTATPVQTVPQPHPQTLPPAVPHSVPQPTTAIPAFPPVMVPPFRVPLPGMPIPLPGVAMMQIVSCPYVKTVATTKTGVLPGMAPPIVPMIHPQVAIAASPATLAGATAVSEWTEYKTADGKTYYYNNRTLESTWEKPQELKEKEKLEEKIKEPIKEPSEEPLPMETEEEDPKEEPIKEIKEEPKEEEMTEEEKAAQKAKPVATAPIPGTPWCVVWTGDERVFFYNPTTRLSMWDRPDDLIGRADVDKIIQEPPHKKGMEELKKLRHPTPTMLSIQKWQFSMSAIKEEQELMEEINEDEPVKAKKRKRDDNKDIDSEKEAAMEAEIKAARERAIVPLEARMKQFKDMLLERGVSAFSTWEKELHKIVFDPRYLLLNPKERKQVFDQYVKTRAEEERREKKNKIMQAKEDFKKMMEEAKFNPRATFSEFAAKHAKDSRFKAIEKMKDREALFNEFVAAARKKEKEDSKTRGEKIKSDFFELLSNHHLDSQSRWSKVKDKVESDPRYKAVDSSSMREDLFKQYIEKIAKNLDSEKEKELERQARIEASLREREREVQKARSEQTKEIDREREQHKREEAIQNFKALLSDMVRSSDVSWSDTRRTLRKDHRWESGSLLEREEKEKLFNEHIEALTKKKREHFRQLLDETSAITLTSTWKEVKKIIKEDPRCIKFSSSDRKKQREFEEYIRDKYITAKADFRTLLKETKFITYRSKKLIQESDQHLKDVEKILQNDKRYLVLDCVPEERRKLIVAYVDDLDRRGPPPPPTASEPTRRSTK

Tests used:
3×MBT domain of L3MBTL1 = experiment: Triple SILAC pull-down, 3xMBT/3xMBTD355N ratio (cytoplasmic, nuclear and chromatin fractions of 293T cells); format: binding, human; settings: SILAC ratio, pull-down 3xMBT vs 3xMBTD355N; for 3xMBT/D355N UNC Heavy: experiment with UNC0638 in heavy SILAC media; for 3xMBT/D355N UNC Light: experiment with UNC0638 in light SILAC media;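 on all read-outs here: proteins quantified with MaxQuant, requiring at least two unique peptides and quantification in both label directions, normalized to the mean of proteins from a digested loading control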
G9a and GLP = target: T1, G9a and GLP; experiment: Triple SILAC pull-down after UNC0638 treatment of 293T cells, DMSO/UNC0638 ratio of protein captured by 3×MBT; format: cell-based; design: cells were treated for 24 hours with UNC0638 at 2.5 μM or DMSO vehicle control; endogenous in cells; host or cells: HEK 293T; settings: for Relative to UNC0638 UNC Heavy / Relative to UNC0638 UNC Light: SILAC ratio DMSO/UNC0638 of protein pulled down with 3xMBT; for Relative to UNC0638 UNC Heavy: UNC0638 in heavy SILAC media; for Relative to UNC0638 UNC Light: UNC0638 in light SILAC media; for Relative to UNC0638 Average: average of UNC Light and UNC Heavy experiments;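 on all read-outs here: mass spectrometry (Q-Exactive) SILAC quantitation, DMSO/UNC0638 ratio computed after subtracting 3×MBTD355N mutant pull-down background, only proteins with at least twofold 3×MBT over mutant signal considered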

Row | Molecule | 3xMBT/D355N UNC Heavy (3×MBT domain of L3MBTL1) | 3xMBT/D355N UNC Light (3×MBT domain of L3MBTL1) | Relative to UNC0638 UNC Heavy (G9a and GLP) | Relative to UNC0638 UNC Light (G9a and GLP) | Relative to UNC0638 Average (G9a and GLP)
1 | B1 | 2.08 log base 2 | 1.66 log base 2 | 0.35 log base 2 | −0.08 log base 2 | 0.13 log base 2
2 | B2 | 3.88 log base 2 | 3.18 log base 2 | 0.11 log base 2 | 0.14 log base 2 | 0.13 log base 2
3 | B3 | 2.39 log base 2 | 2.62 log base 2 | 0.07 log base 2 | 0.20 log base 2 | 0.13 log base 2
4 | B4 | 2.34 log base 2 | 3.64 log base 2 | −0.10 log base 2 | 0.37 log base 2 | 0.13 log base 2
